Assay results as given in patent US20240209084A1 (CYTOARM, published 2024).

Key:
CD19 [1] = molecular target: T1, CD19 (human, UniProt P15391 20-556); test: flow cytometry on Raji cells (CD19+), FITC goat anti-human IgG Fab
T1 construct: whole, on cells; also called CD19^+ B cell lymphoma (Raji)
T1 sequence (looked up): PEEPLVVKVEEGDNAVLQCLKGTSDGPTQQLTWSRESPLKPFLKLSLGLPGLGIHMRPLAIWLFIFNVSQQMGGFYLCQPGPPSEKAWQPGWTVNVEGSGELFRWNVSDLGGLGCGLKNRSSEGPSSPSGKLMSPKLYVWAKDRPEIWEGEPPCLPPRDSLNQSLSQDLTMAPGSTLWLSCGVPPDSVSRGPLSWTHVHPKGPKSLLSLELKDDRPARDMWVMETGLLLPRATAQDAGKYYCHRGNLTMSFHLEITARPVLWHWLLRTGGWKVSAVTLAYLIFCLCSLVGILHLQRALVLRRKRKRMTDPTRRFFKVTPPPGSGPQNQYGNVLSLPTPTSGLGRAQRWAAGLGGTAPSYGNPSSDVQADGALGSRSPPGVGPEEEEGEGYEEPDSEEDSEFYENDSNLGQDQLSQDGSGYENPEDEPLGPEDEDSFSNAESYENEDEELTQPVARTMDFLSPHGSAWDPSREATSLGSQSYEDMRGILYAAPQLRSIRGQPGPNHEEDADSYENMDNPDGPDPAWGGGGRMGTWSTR

CD19 [2] = molecular target: T1, CD19; test: flow cytometry titration on Raji cells (CD19+), FITC goat anti-human IgG Fab
CD3 = molecular target: T2, CD3 (human, UniProt P07766 23-207); test: flow cytometry titration on Jurkat cells (CD3+), FITC goat anti-human IgG Fab
T2 construct: whole, on cells; CD3 is a multi-chain complex; also called CD3 on CD3-positive T cells; CD3^+ T cells (Jurkat)
T2 sequence (P07766 23-207): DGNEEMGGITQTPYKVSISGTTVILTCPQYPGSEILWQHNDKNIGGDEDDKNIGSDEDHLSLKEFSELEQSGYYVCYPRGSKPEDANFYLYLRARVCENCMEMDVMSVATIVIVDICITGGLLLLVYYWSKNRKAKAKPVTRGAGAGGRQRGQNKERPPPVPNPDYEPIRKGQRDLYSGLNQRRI

PSMA = molecular target: T3, PSMA (human, UniProt Q04609 1-750); test: flow cytometry on LNCaP cells (PSMA+), FITC goat anti-human IgG Fab
T3 construct: whole, on cells; also called prostate-specific membrane antigen; PSMA^+ Prostate cancer (LNCaP)
T3 sequence (Q04609 whole entry): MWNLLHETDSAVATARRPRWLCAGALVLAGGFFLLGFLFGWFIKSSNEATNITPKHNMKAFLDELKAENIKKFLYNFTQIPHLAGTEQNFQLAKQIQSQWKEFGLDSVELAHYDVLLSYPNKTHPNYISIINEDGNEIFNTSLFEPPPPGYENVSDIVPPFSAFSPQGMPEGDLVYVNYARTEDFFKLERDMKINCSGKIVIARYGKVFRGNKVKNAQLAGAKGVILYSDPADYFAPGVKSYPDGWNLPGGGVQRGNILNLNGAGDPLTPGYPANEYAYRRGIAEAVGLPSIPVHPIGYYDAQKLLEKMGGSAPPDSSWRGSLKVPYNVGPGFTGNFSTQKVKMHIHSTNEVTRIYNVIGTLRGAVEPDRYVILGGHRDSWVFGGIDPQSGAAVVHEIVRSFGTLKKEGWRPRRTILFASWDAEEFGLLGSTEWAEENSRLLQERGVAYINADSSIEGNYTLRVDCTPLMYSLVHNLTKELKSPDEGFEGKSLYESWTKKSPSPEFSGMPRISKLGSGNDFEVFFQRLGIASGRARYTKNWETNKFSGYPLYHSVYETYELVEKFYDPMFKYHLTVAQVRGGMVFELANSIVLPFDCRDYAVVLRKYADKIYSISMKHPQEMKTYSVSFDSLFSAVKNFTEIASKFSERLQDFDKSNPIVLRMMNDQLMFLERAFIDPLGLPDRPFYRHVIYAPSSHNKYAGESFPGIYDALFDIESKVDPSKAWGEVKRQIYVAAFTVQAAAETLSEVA

EpCAM = molecular target: T4, EpCAM (human, UniProt P16422 24-314); test: flow cytometry on LNCaP cells (EpCAM+), FITC goat anti-human IgG Fab
T4 construct: whole, on cells; also called epithelial cell adhesion molecule; EpCAM^+ prostate cancer (LNCaP)
T4 sequence (looked up): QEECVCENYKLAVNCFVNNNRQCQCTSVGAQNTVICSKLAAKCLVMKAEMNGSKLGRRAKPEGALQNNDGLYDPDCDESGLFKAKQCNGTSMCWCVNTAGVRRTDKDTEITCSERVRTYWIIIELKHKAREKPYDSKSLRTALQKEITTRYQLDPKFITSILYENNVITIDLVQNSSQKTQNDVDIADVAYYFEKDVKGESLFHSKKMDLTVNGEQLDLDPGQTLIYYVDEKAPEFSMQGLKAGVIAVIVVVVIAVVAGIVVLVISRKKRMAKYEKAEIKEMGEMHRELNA

B1: CTA03Fab/CTAT02scFv (bispecific antibody)
heavy: EVQLLESGGGLVQPGGSLRLSCAASGFTFSSFPMAWVRQAPGKGLEWVSTISTSGGRTYYRDSVKGRFTISRDNSKNTLYLQMNSLRAEDTAVYYCAKFRQYSGGFDYWGQGTLVTVSSASTKGPSVFPLAPSSKSTSGGTAALGCLVKDYFPEPVTVSWNSGALTSGVHTFPAVLQSSGLYSLSSVVTVPSSSLGTQTYICNVNHKPSNTKVDKKVEPKSCGGGSGGGEVKLQESGPGLVAPSQSLSVTCTVSGVSLPDYGVSWIRQPPRKGLEWLGVIWGSETTYYNSALKSRLTIIKDNSKSQVFLKMNSLQTDDTAIYYCAKHYYYGGSYAMDYWGQGTSVTVSSGGGGSGGGGSGGGGSDIQMTQTTSSLSASLGDRVTISCRASQDISKYLNWYQQKPDGTVKLLIYHTSRLHSGVPSRFSGSGSGTDYSLTISNLEQEDIATYFCQQGNTLPYTFGGGTKLEIT
light: DIQLTQPNSVSTSLGSTVKLSCTLSSGNIENNYVHWYQLYEGRSPTTMIYDDDKRPDGVPDRFSGSIDRSSNSAFLTIHNVAIEDEAIYFCHSYVSSFNVFGGGTKLTVLRQPKAAPSVTLFPPSSEELQANKATLVCLISDFYPGAVTVAWKADSSPVKAGVETTTPSKQSNNKYAASSYLSLTPEQWKSHRSYSCQVTHEGSTVEKTVAPTECS
notes: also called anti-CD3Fab/anti-CD19scFv; parent CTA03Fab/CTAT02scFv BsAb
Question: Does B1 bind (CD19 [1])?
Answer: Result: binds

B2: CTA03-01Fab/CTAT02-01scFv (bispecific antibody)
heavy: EVQLLESGGGLVQPGGSLRLSCAASGFTFSSFPMAWVRQAPGKGLEWVSTISTSGGRTYYRDSVKGRFTISRDNSKNTLYLQMNSLRAEDTAVYYCAKFRQYSGGFDYWGQGTLVTVSSASTKGPSVFPLAPSSKSTSGGTAALGCLVKDYFPEPVTVSWNSGALTSGVHTFPAVLQSSGLYSLSSVVTVPSSSLGTQTYICNVNHKPSNTKVDKKVEPKSCGGGSGGGEVKLQESGPGLVAPSQSLSVTCTVSGVSLPDYGVSWIRQPPRKGLEWLGVIWGSETTYYNSALKSRLTIIKDNSKSQVFLKMNSLQTDDTAIYYCAKHYYYGGSYAMDYWGQGTSVTVSSGGGGSGGGGSGGGGSDIQMTQTTSSLSASLGDRVTISCRASQDISKYLNWYQQKPDATVKLLIYHTSRLHSGVPSRFSGSGSGTDYSLTISNLEQEDIATYFCQQGNTLPYTFGGGTKLEIT
light: DIQLTQPNSVSTSLGSTVKLSCTLSSGNIENNYVHWYQLYEGRSPTTMIYDDDKRPDAVPDRFSGSIDRSSNSAFLTIHNVAIEDEAIYFCHSYVSSFNVFGGGTKLTVLRQPKAAPSVTLFPPSSEELQANKATLVCLISDFYPGAVTVAWKADSSPVKAGVETTTPSKQSNNKYAASSYLSLTPEQWKSHRSYSCQVTHEGSTVEKTVAPTECS
notes: also called CTA03Fab(VLG58A)/CTAT02scFv(VLG42A)
Question: Does B2 bind (CD19 [2])?
Answer: Result: binds

B3: CTA03-01Fab/CTAT02-02scFv (bispecific antibody)
heavy: EVQLLESGGGLVQPGGSLRLSCAASGFTFSSFPMAWVRQAPGKGLEWVSTISTSGGRTYYRDSVKGRFTISRDNSKNTLYLQMNSLRAEDTAVYYCAKFRQYSGGFDYWGQGTLVTVSSASTKGPSVFPLAPSSKSTSGGTAALGCLVKDYFPEPVTVSWNSGALTSGVHTFPAVLQSSGLYSLSSVVTVPSSSLGTQTYICNVNHKPSNTKVDKKVEPKSCGGGSGGGEVKLQESGPGLVAPSQSLSVTCTVSGVSLPDYGVSWIRQPPRKGLEWLGVIWGSETTYYNSALKSRLTIIKDNSKSQVFLKMNSLQTDDTAIYYCAKHYYYGGSYAMDYWGQGTSVTVSSGGGGSGGGGSGGGGSDIQMTQTTSSLSASLGDRVTISCRASQDISKYLNWYQQKPEGTVKLLIYHTSRLHSGVPSRFSGSGSGTDYSLTISNLEQEDIATYFCQQGNTLPYTFGGGTKLEIT
light: DIQLTQPNSVSTSLGSTVKLSCTLSSGNIENNYVHWYQLYEGRSPTTMIYDDDKRPDAVPDRFSGSIDRSSNSAFLTIHNVAIEDEAIYFCHSYVSSFNVFGGGTKLTVLRQPKAAPSVTLFPPSSEELQANKATLVCLISDFYPGAVTVAWKADSSPVKAGVETTTPSKQSNNKYAASSYLSLTPEQWKSHRSYSCQVTHEGSTVEKTVAPTECS
notes: also called CTA03Fab(VLG58A)/CTAT02scFv(VLD41E)
Question: How did the “EC50 (read off the curve)” value (CD19 [2]) turn out when B3 was run?
Answer: Its value is roughly 1 µg/mL.

B4: CTA03-02Fab/CTAT02-01scFv (bispecific antibody)
heavy: EVQLLESGGGLVQPGGSLRLSCAASGFTFSSFPMAWVRQAPGKGLEWVSTISTSGGRTYYRDSVKGRFTISRDNSKNTLYLQMNSLRAEDTAVYYCAKFRQYSGGFDYWGQGTLVTVSSASTKGPSVFPLAPSSKSTSGGTAALGCLVKDYFPEPVTVSWNSGALTSGVHTFPAVLQSSGLYSLSSVVTVPSSSLGTQTYICNVNHKPSNTKVDKKVEPKSCGGGSGGGEVKLQESGPGLVAPSQSLSVTCTVSGVSLPDYGVSWIRQPPRKGLEWLGVIWGSETTYYNSALKSRLTIIKDNSKSQVFLKMNSLQTDDTAIYYCAKHYYYGGSYAMDYWGQGTSVTVSSGGGGSGGGGSGGGGSDIQMTQTTSSLSASLGDRVTISCRASQDISKYLNWYQQKPDATVKLLIYHTSRLHSGVPSRFSGSGSGTDYSLTISNLEQEDIATYFCQQGNTLPYTFGGGTKLEIT
light: DIQLTQPNSVSTSLGSTVKLSCTLSSGNIENNYVHWYQLYEGRSPTTMIYDDDKRPEGVPDRFSGSIDRSSNSAFLTIHNVAIEDEAIYFCHSYVSSFNVFGGGTKLTVLRQPKAAPSVTLFPPSSEELQANKATLVCLISDFYPGAVTVAWKADSSPVKAGVETTTPSKQSNNKYAASSYLSLTPEQWKSHRSYSCQVTHEGSTVEKTVAPTECS
notes: also called CTA03Fab(VLD57E)/CTAT02scFv(VLG42A)
Question: Does B4 bind (CD19 [2])?
Answer: Result: binds

B5: CTA03-02Fab/CTAT02-02scFv (bispecific antibody)
heavy: EVQLLESGGGLVQPGGSLRLSCAASGFTFSSFPMAWVRQAPGKGLEWVSTISTSGGRTYYRDSVKGRFTISRDNSKNTLYLQMNSLRAEDTAVYYCAKFRQYSGGFDYWGQGTLVTVSSASTKGPSVFPLAPSSKSTSGGTAALGCLVKDYFPEPVTVSWNSGALTSGVHTFPAVLQSSGLYSLSSVVTVPSSSLGTQTYICNVNHKPSNTKVDKKVEPKSCGGGSGGGEVKLQESGPGLVAPSQSLSVTCTVSGVSLPDYGVSWIRQPPRKGLEWLGVIWGSETTYYNSALKSRLTIIKDNSKSQVFLKMNSLQTDDTAIYYCAKHYYYGGSYAMDYWGQGTSVTVSSGGGGSGGGGSGGGGSDIQMTQTTSSLSASLGDRVTISCRASQDISKYLNWYQQKPEGTVKLLIYHTSRLHSGVPSRFSGSGSGTDYSLTISNLEQEDIATYFCQQGNTLPYTFGGGTKLEIT
light: DIQLTQPNSVSTSLGSTVKLSCTLSSGNIENNYVHWYQLYEGRSPTTMIYDDDKRPEGVPDRFSGSIDRSSNSAFLTIHNVAIEDEAIYFCHSYVSSFNVFGGGTKLTVLRQPKAAPSVTLFPPSSEELQANKATLVCLISDFYPGAVTVAWKADSSPVKAGVETTTPSKQSNNKYAASSYLSLTPEQWKSHRSYSCQVTHEGSTVEKTVAPTECS
notes: also called CTA03Fab(VLD57E)/CTAT02scFv(VLD41E)
Question: Which results are given for B5?
Answer: binding result (CD19 [2]): binds; EC50 (read off the curve) (CD3): ~0.2 µg/mL

B6: CTA03Fab/CTAT05scFv (bispecific antibody)
heavy: EVQLLESGGGLVQPGGSLRLSCAASGFTFSSFPMAWVRQAPGKGLEWVSTISTSGGRTYYRDSVKGRFTISRDNSKNTLYLQMNSLRAEDTAVYYCAKFRQYSGGFDYWGQGTLVTVSSASTKGPSVFPLAPSSKSTSGGTAALGCLVKDYFPEPVTVSWNSGALTSGVHTFPAVLQSSGLYSLSSVVTVPSSSLGTQTYICNVNHKPSNTKVDKKVEPKSCGGGSGGGEVQLVQSGAEVKKPGASVKISCKTSGYTFTEYTIHWVKQASGKGLEWIGNINPNNGGTTYNQKFEDRATLTVDKSTSTAYMELSSLRSEDTAVYYCAAGWNFDYWGQGTTVTVSSGGGGSGGGGSGGGGSDIVMTQSPSSLSASVGDRVTITCKASQDVGTAVDWYQQKPGKAPKLLIYWASTRHTGVPDRFTGSGSGTDFTLTISSLQPEDFADYFCQQYNSYPLTFGGGTKLEIK
light: DIQLTQPNSVSTSLGSTVKLSCTLSSGNIENNYVHWYQLYEGRSPTTMIYDDDKRPDGVPDRFSGSIDRSSNSAFLTIHNVAIEDEAIYFCHSYVSSFNVFGGGTKLTVLRQPKAAPSVTLFPPSSEELQANKATLVCLISDFYPGAVTVAWKADSSPVKAGVETTTPSKQSNNKYAASSYLSLTPEQWKSHRSYSCQVTHEGSTVEKTVAPTECS
notes: also called antiCD3Fab/anti-PSMAscFv
Question: Does B6 bind (PSMA)?
Answer: Result: binds

B7: CTA03Fab/CTAT07scFv (bispecific antibody)
heavy: EVQLLESGGGLVQPGGSLRLSCAASGFTFSSFPMAWVRQAPGKGLEWVSTISTSGGRTYYRDSVKGRFTISRDNSKNTLYLQMNSLRAEDTAVYYCAKFRQYSGGFDYWGQGTLVTVSSASTKGPSVFPLAPSSKSTSGGTAALGCLVKDYFPEPVTVSWNSGALTSGVHTFPAVLQSSGLYSLSSVVTVPSSSLGTQTYICNVNHKPSNTKVDKKVEPKSCGGGSGGGEVQLVQSGPGLVQPGGSVRISCAASGYTFTNYGMNWVKQAPGKGLEWMGWINTYTGESTYADSFKGRFTFSLDTSASAAYLQINSLRAEDTAVYYCARFAIKGDYWGQGTLLTVSSGGGGSGGGGSGGGGSDIQMTQSPSSLSASVGDRVTITCRSTKSLLHSNGITYLYWYQQKPGKAPKLLIYQMSNLASGVPSRFSSSGSGTDFTLTISSLQPEDFATYYCAQNLEIPRTFGQGTKVELK
light: DIQLTQPNSVSTSLGSTVKLSCTLSSGNIENNYVHWYQLYEGRSPTTMIYDDDKRPDGVPDRFSGSIDRSSNSAFLTIHNVAIEDEAIYFCHSYVSSFNVFGGGTKLTVLRQPKAAPSVTLFPPSSEELQANKATLVCLISDFYPGAVTVAWKADSSPVKAGVETTTPSKQSNNKYAASSYLSLTPEQWKSHRSYSCQVTHEGSTVEKTVAPTECS
notes: also called antiCD3Fab/anti-EpCAMscFv
Question: Does B7 bind (EpCAM)?
Answer: Result: binds
